The values below come from patent US20230036655A1 (OTSUKA PHARMACEUTICAL, published 2023).

T1: human GDF15 (hGDF15), mature, wild-type (human, UniProt Q99988 197-308)
T1 construct: Bought recombinant protein: R&D Systems 957-GD-025/CF in most assays, 9279-GD in the crystal and the GDF15/GFRAL/RET assay; It was biotinylated in the GFRAL assay; also called hGDF15 (WT); rhGDF15
T1 sequence: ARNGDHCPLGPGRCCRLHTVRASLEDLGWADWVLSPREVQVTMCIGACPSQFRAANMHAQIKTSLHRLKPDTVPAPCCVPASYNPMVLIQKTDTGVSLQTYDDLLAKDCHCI

B1: H3-L48K (antibody, human IgG1, kappa, V domains shown)
VH: QVQLQESGPGLVKPSETLSLTCTVSGFSINSDCYWIWIRQPPGKGLEYIGYTFYSGITYYNPSLASRTTISRDTSKNQFSLKLSSVTAADTAVYYCARDCDYAMDYWGQGTLVTVSS
VL: DIQMTQSPSSLSASVGDRVTITCRASQKISNYLNWYQQKPGKAVKLLIHYTSTLHSGVPSRFSGSGSGTDYTLTISSLQPEDFATYFCQQGNTLPWTFGQGTKLEIKR
notes: In the label, L means the L chain; Tested as culture supernatant; also called HuMAB2 variant L48K
B2: H3-L112D (antibody, human IgG1, kappa, V domains shown)
VH: QVQLQESGPGLVKPSETLSLTCTVSGFSINSDCYWIWIRQPPGKGLEYIGYTFYSGITYYNPSLASRTTISRDTSKNQFSLKLSSVTAADTAVYYCARDCDYAMDYWGQGTLVTVSS
VL: DIQMTQSPSSLSASVGDRVTITCRASQDISNYLNWYQQKPGKAVKLLIHYTSTLHSGVPSRFSGSGSGTDYTLTISSLQPEDFATYFCQQGDTLPWTFGQGTKLEIKR
notes: In the label, L means the L chain; Tested as culture supernatant; also called HuMAB2 variant L112D
B3: H48S-L7 (antibody, human IgG1, kappa, V domains shown)
VH: QVQLQESGPGLVKPSETLSLTCTVSGFSISSDCYWIWIRQPPGKGLEYIGYTFYSGITYYNPSLASRTTISRDTSKNQFSLKLSSVTAADTAVYYCARDCDYAMDYWGQGTLVTVSS
VL: DIQMTQSPSSLSASVGDRVTITCRASQDISNYLNWYQQKPGKAVKLLIHYTSTLHSGVPSRFSGSGSGTDYTLTISSLQPEDFATYFCQQGNTLPWTFGQGTKLEIKR
notes: Tested as culture supernatant; also called HuMAB2 variant H48S
B4: H120F-L7 (antibody, human IgG1, kappa, V domains shown)
VH: QVQLQESGPGLVKPSETLSLTCTVSGFSINSDCYWIWIRQPPGKGLEYIGYTFYSGITYYNPSLASRTTISRDTSKNQFSLKLSSVTAADTAVYYCARDCDFAMDYWGQGTLVTVSS
VL: DIQMTQSPSSLSASVGDRVTITCRASQDISNYLNWYQQKPGKAVKLLIHYTSTLHSGVPSRFSGSGSGTDYTLTISSLQPEDFATYFCQQGNTLPWTFGQGTKLEIKR
notes: In the label, H means the H chain; Tested as culture supernatant; also called HuMAB2 variant H120F
B5: H83R-L7 (antibody, human IgG1, kappa, V domains shown)
VH: QVQLQESGPGLVKPSETLSLTCTVSGFSINSDCYWIWIRQPPGKGLEYIGYTFYSGITYYNPSLRSRTTISRDTSKNQFSLKLSSVTAADTAVYYCARDCDYAMDYWGQGTLVTVSS
VL: DIQMTQSPSSLSASVGDRVTITCRASQDISNYLNWYQQKPGKAVKLLIHYTSTLHSGVPSRFSGSGSGTDYTLTISSLQPEDFATYFCQQGNTLPWTFGQGTKLEIKR
notes: In the label, H means the H chain; Tested as culture supernatant; also called HuMAB2 variant H83R
B6: H71Y-L7 (antibody, human IgG1, kappa, V domains shown)
VH: QVQLQESGPGLVKPSETLSLTCTVSGFSINSDCYWIWIRQPPGKGLEYIGYTYYSGITYYNPSLASRTTISRDTSKNQFSLKLSSVTAADTAVYYCARDCDYAMDYWGQGTLVTVSS
VL: DIQMTQSPSSLSASVGDRVTITCRASQDISNYLNWYQQKPGKAVKLLIHYTSTLHSGVPSRFSGSGSGTDYTLTISSLQPEDFATYFCQQGNTLPWTFGQGTKLEIKR
notes: In the label, H means the H chain; also called HuMAB2 variant H71Y
B7: H49D-L7 (antibody, human IgG1, kappa, V domains shown)
VH: QVQLQESGPGLVKPSETLSLTCTVSGFSINDDCYWIWIRQPPGKGLEYIGYTFYSGITYYNPSLASRTTISRDTSKNQFSLKLSSVTAADTAVYYCARDCDYAMDYWGQGTLVTVSS
VL: DIQMTQSPSSLSASVGDRVTITCRASQDISNYLNWYQQKPGKAVKLLIHYTSTLHSGVPSRFSGSGSGTDYTLTISSLQPEDFATYFCQQGNTLPWTFGQGTKLEIKR
notes: In the label, H means the H chain; also called HuMAB2 variant H49D
B8: H49R-L7 (antibody, human IgG1, kappa, V domains shown)
VH: QVQLQESGPGLVKPSETLSLTCTVSGFSINRDCYWIWIRQPPGKGLEYIGYTFYSGITYYNPSLASRTTISRDTSKNQFSLKLSSVTAADTAVYYCARDCDYAMDYWGQGTLVTVSS
VL: DIQMTQSPSSLSASVGDRVTITCRASQDISNYLNWYQQKPGKAVKLLIHYTSTLHSGVPSRFSGSGSGTDYTLTISSLQPEDFATYFCQQGNTLPWTFGQGTKLEIKR
notes: In the label, H means the H chain; also called HuMAB2 variant H49R
B9: H3-L74H (antibody, human IgG1, kappa, V domains shown)
VH: QVQLQESGPGLVKPSETLSLTCTVSGFSINSDCYWIWIRQPPGKGLEYIGYTFYSGITYYNPSLASRTTISRDTSKNQFSLKLSSVTAADTAVYYCARDCDYAMDYWGQGTLVTVSS
VL: DIQMTQSPSSLSASVGDRVTITCRASQDISNYLNWYQQKPGKAVKLLIHYTSTHHSGVPSRFSGSGSGTDYTLTISSLQPEDFATYFCQQGNTLPWTFGQGTKLEIKR
notes: In the label, L means the L chain; also called HuMAB2 variant L74H
B10: H3-L72F (antibody, human IgG1, kappa, V domains shown)
VH: QVQLQESGPGLVKPSETLSLTCTVSGFSINSDCYWIWIRQPPGKGLEYIGYTFYSGITYYNPSLASRTTISRDTSKNQFSLKLSSVTAADTAVYYCARDCDYAMDYWGQGTLVTVSS
VL: DIQMTQSPSSLSASVGDRVTITCRASQDISNYLNWYQQKPGKAVKLLIHYTFTLHSGVPSRFSGSGSGTDYTLTISSLQPEDFATYFCQQGNTLPWTFGQGTKLEIKR
notes: In the label, L means the L chain; also called HuMAB2 variant L72F

The target of the first test is T1, human GDF15 (hGDF15), mature, wild-type. The test can be described thus: ELISA, hGDF15 immobilised; binding at 5 ng/mL antibody, HuMAB2 = 100. As for the experimental part: A 100 μL hGDF15 solution (0.4 μg/ml) was added to a 96-well plate and left at 4° C. until the next morning to prepare a plate for ELISA. To the plate, 1% BSA was added for blocking for 1 hour. A dilution series of the culture supernatant containing the variant antibody was prepared from 30-fold dilution (common ratio of dilution factor was 3), and 100 μL of each solution was added to the ELISA plate and left for 2 hours. As a secondary antibody, an HRP conjugated anti-human IgG antibody (Gene Tex, GTX26759) (20000-fold dilution) was added and left for 1 hour. TMB (Sigma, T-0440) was used for color development reaction, and 2N sulfuric acid was used as a reaction terminator. The absorbance was measured at 450 nm.
For B1, the “fold change in binding strength compared to HuMAB2” value (“fold change in binding strength” below) is approximately 1.5 fold. On to B2, for which the “fold change in binding strength” value was approximately 1.5 fold. On the same count and under the same terms, the same measure for B3: approximately 1.5 fold. On the same count and under the same terms, the result for B4 reads approximately 1.5 fold. Regarding B5, the “fold change in binding strength” value is approximately 1.5 fold.

The next test shares this target. The test can be described thus: ELISA, hGDF15 immobilised. Background: An ELISA detects its analyte on a solid surface through an enzyme-linked reagent.
For the molecule B6, the binding result is given as “binds”. On to B7, for which the binding result is “binds”. Turning to B8, the binding result is reported as “binds”. Take B9: the binding result is recorded as “binds”. Turning to B10, the binding result is recorded as “binds”.
